From publication PMC4718742 (Nature chemical biology, 2015)
Each block holds one binder with its values, some of them ahead of it.

Assays:
human CypA (1–165) [1] = target: T1, human CypA (1–165) (human, UniProt P62937 1-165)
human CypA (1–165) [2] = target: T1, human CypA (1–165); assay: NMR titration

- fold higher affinity than wild-type CrkII (human CypA (1–165) [1]): ~20 fold
B1: CrkII^P218F (natural protein)
chain: MAGNFDSEERSSWYWGRLSRQEAVALLQGQRHGVFLVRDSSTSPGDYVLSVSENSRVSHYIINSSGPRPPVPPSPAQPPPGVSPSRLRIGDQEFDSLPALLEFYKIHYLDTTTLIEPVSRSRQGSGVILRQEEAEYVRALFDFNGNDEEDLPFKKGDILRIRDKPEEQWWNAEDSEGKRGMIPVPYVEKYRPASASVSALIGGNQEGSHPQPLGGPEFGPYAQPSVNTPLPNLQNGPIYARVIQKRVPNAYDKTALALEVGELVKVTKINVSGQWEGECNGKRGHFPFTHVRLLDQQNP

- binding result (human CypA (1–165) [2]): binds
B2: CrkII peptide (Pro216-Ser225) (peptide)
peptide: PEPGPYAQPS
